Experimental data: publication doi:10.1101/2020.07.22.215871

Biological target: T1, Tb927.11.16120-His (r16120) (Trypanosoma brucei, UniProt Q381H4 1-610)
T1 sequence: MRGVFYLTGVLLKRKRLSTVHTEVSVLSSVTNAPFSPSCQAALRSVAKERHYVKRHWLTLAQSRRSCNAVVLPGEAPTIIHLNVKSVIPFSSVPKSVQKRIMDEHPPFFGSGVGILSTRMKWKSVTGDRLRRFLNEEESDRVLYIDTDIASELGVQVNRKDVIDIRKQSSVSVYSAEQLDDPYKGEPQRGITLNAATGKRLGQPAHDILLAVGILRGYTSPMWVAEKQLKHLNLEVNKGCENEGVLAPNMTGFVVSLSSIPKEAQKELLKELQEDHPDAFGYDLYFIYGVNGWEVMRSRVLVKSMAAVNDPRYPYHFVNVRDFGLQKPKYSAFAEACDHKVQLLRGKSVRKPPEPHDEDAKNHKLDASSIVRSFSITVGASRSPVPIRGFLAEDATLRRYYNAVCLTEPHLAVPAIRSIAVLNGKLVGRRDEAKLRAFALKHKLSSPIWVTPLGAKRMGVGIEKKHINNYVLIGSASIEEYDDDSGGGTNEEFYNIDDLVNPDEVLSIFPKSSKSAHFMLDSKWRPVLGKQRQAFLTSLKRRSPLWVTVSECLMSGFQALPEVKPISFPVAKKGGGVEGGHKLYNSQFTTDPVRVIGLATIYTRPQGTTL
Experiment: EMSA

B1: 73 bp conserved minicircle sequence (dsDNA)
DNA 1: GAAAAAACGGAAAATCTTATGGGCGTGCAAAAATACACATACACAAATCCCGTGCTTATTTTAGGCCATTTTT
DNA 2: AAAAATGGCCTAAAATAAGCACGGGATTTGTGTATGTGTATTTTTGCACGCCCATAAGATTTTCCGTTTTTTC
Q: Does B1 bind?
A: binds
